Laboratory results taken from article PMC6280682, “The Micronemal Plasmodium Proteins P36 and P52 Act in Concert to Establish the Replication-Permissive Compartment Within Infected Hepatocytes” (Frontiers in Cellular and Infection Microbiology, 2018).

Molecular target: T1, Plasmodium yoelii P36 with a C-terminal mCherry tag (P36^mCherry) (Plasmodium yoelii, UniProt Q7RPW4 25-310)
T1 construct: P36, Plasmodium yoelii 17X, 6-cys s48/45 family, two s48/45 domains; predicted MW with mCherry 66 kDa; also called Py P36^mCherry; not shown: mCherry, C-terminal, kept
T1 sequence: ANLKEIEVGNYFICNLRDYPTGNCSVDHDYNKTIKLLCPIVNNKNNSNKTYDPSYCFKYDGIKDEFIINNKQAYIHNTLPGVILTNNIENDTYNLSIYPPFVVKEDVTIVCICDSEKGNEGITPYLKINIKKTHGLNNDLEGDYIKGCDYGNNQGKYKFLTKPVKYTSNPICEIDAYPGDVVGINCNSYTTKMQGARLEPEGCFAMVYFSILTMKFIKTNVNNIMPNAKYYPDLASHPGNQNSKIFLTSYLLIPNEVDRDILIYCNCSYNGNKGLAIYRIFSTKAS
Experiment: affinity purification with mass spectrometry; BS3-crosslinked P36^mCherry sporozoite lysate immunoprecipitated with RFP-Trap, S-Trap digest, LC-MS/MS (Q-Exactive HF), spectral counting
Conditions: partners not purified

B1: Plasmodium yoelii P52 (natural protein)
chain: NVPNPNTTIGHFEICEVNTSSGDAEECVLENEFGKMFLFICDIDYNEMSKNIVLPSECAKKTYIDHVNPNGTSPEVNTYDIFPDLIAANESQFRDKFYFYGTPYSSKDIDFICLCFSETKPDIKHVMKMSFKKMTKKIKGCDFGDNIPTKKDLTNGKALYENSSCHIYAYPGDVIGINCYKKDINNIYNNNLELQPNNCFHNVYYEDDILLSSKNLIPNSRVIPDPSNDVKLSKMHSYMSYIILPDEINENVKISCACKRDEYIGTMFLYVNTSKNILTSPDNNVEEIAPLNDHYISIGDMWDMGLHENPEQIQGIISNHANKKYYEHMKIYKSNKMDSSDDDESNETESSENESNERTHNGNRANKDANNSEKMTGNRRKKNNSINNTNYYSNYEDDNGINISTHDKYYEDQHFGNNGPLRKKRTFWQNMFGTS
notes: P52, Plasmodium yoelii 17X, 6-cys s48/45 family, two s48/45 domains; predicted MW 53 kDa; also called Py P52; source: endogenous, P. yoelii P36^mCherry salivary gland sporozoite lysate
  stoichiometry N: ~1
